Laboratory results published in US20240400651A1 (VAL CHUM LIMITED PARTNERSHIP, published 2024).

Target: SARS-CoV-2 receptor binding domain (RBD), residues 319-591 of SARS-CoV-2 S (SARS-CoV-2, UniProt P0DTC2 319-591)
Assay: BLI, mAb on anti-human Fc probe (FIGS. 5A-E)

B1: Mab #1 (antibody, V domains shown)
VH: EVQLVESGPEVKKPGTSVKVPCKASGFTFTSSAVQWVRQARGQRLEWIGWIVVGSGNTNYAQKFQERVTITRDMSTSTAYMELSSLRSEDTAVYYCAAPSCSGGRCYDGFDIWGQGTMVTVSS
VL: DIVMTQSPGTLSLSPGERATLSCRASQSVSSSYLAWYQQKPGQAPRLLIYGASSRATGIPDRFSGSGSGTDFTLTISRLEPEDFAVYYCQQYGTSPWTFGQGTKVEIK
binding result: binds
